Laboratory results taken from publication PMC6443961, “Von Willebrand Factor Mediates Pneumococcal Aggregation and Adhesion in Blood Flow” (Frontiers in Microbiology, 2019).
Where “and” joins values, the source holds several entries; their conditions need not be identical. Equal values may be shown once.

Assays:
[1] = molecular target: recombinant enolase protein (rEno) of S. pneumoniae serotype 2 (ATCC 11733) (Streptococcus pneumoniae serotype 2 (ATCC 11733)) (UniProt Q04KG2); experiment: SPR; rEno immobilised by amine coupling on CM5 chips (BIAcore T200); PBS pH 7.4 with 0.05% Tween 20, 25°C, 10 µl/min; analytes plasma VWF 0.625-10.0 µg/ml or VWF A1 domain 0.0612-1.0 µg/ml; 1:1 Langmuir model; values of the single independent kinetic runs
[2] = molecular target: recombinant enolase of S. pneumoniae serotype 2 (ATCC 11733) (Streptococcus pneumoniae serotype 2 (ATCC 11733)) (UniProt Q97QS2); experiment: SPR; rEno immobilised by amine coupling on CM5 chip (BIAcore T200), VWF or A domains as analyte, PBS pH 7.4 with 0.05% Tween 20, 25°C, 10 μl/min, 1:1 Langmuir model
[3] = molecular target: T1, human plasma von Willebrand factor (human, UniProt P04275 764-2813); experiment: peptide or protein array; 141 overlapping 15mer peptides of enolase (offset three) on cellulose membrane, overlay with 2.0 μg/ml VWF, detected with anti-VWF antibody; settings: both partners purified
T1 construct: von Willebrand factor, human, derived from plasma; called 'full length VWF' in the SPR methods, as against the single A domains; Glycoprotein from plasma that circulates as multimers; also called VWF; plasma VWF; source: bought: Merck Chemicals (human plasma VWF)

Sequence of recombinant enolase protein (rEno) of S. pneumoniae serotype 2 (ATCC 11733) (Streptococcus pneumoniae serotype 2 (ATCC 11733)) (Q04KG2 whole entry, the tested form may be a part): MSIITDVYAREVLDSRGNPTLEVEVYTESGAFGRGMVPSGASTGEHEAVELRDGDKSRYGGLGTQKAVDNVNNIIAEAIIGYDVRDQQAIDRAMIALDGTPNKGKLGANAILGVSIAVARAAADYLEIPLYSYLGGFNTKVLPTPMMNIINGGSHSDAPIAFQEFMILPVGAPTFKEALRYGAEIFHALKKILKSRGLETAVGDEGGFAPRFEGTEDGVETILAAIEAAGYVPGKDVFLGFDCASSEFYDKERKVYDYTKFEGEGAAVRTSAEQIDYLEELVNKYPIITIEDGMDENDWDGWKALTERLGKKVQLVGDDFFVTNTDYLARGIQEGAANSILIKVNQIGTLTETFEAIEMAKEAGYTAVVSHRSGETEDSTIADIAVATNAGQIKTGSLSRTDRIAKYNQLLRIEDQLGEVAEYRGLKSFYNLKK
Sequence of recombinant enolase of S. pneumoniae serotype 2 (ATCC 11733) (Streptococcus pneumoniae serotype 2 (ATCC 11733)) (Q97QS2 whole entry): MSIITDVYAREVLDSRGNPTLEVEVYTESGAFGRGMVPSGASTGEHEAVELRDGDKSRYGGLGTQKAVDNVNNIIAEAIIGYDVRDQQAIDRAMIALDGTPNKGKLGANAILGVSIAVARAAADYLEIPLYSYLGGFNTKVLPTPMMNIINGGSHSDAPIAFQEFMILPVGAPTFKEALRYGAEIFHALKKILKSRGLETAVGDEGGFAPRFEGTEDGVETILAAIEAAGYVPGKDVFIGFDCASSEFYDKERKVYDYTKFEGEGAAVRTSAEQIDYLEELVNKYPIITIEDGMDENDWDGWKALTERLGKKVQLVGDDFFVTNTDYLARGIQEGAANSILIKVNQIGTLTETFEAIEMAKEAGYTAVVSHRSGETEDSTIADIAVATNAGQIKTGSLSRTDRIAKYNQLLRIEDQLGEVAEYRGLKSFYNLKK

recombinant VWF domain A1 (from UniProt P04275 23-2813) (domain or fragment)
Kd [1]: 2.18 nM and 1.79 nM and 0.585 nM
koff [1]: 0.00126 s⁻¹ and 0.00175 s⁻¹ and 0.0013 s⁻¹

recombinant VWF domain A1 (domain or fragment)
Kd [2]: 0.208 nM

B1: enolase peptide 181YGAEIFHALKKILKS195 (peptide)
peptide: YGAEIFHALKKILKS
notes: residues 181-195 of the enolase of S. pneumoniae; one 15mer of the peptide spot array; Synthesised as a spot and held on the cellulose membrane; also called core peptide of region no; source: synthetic peptide, spot on an amino pegylated cellulose membrane
binding result [3]: binds
